Assay results from paper PMC4695401 (Chemistry & biology, 2015).
Ends that are not written are not given here. PEG = not defined here

Target: BRD-containing DNA-PKcs fragment (aa1878-2700) (UniProt P78527 1878-2700)
Assay: pull-down

Chain of BRD-containing DNA-PKcs fragment (aa1878-2700) (P78527 1878-2700): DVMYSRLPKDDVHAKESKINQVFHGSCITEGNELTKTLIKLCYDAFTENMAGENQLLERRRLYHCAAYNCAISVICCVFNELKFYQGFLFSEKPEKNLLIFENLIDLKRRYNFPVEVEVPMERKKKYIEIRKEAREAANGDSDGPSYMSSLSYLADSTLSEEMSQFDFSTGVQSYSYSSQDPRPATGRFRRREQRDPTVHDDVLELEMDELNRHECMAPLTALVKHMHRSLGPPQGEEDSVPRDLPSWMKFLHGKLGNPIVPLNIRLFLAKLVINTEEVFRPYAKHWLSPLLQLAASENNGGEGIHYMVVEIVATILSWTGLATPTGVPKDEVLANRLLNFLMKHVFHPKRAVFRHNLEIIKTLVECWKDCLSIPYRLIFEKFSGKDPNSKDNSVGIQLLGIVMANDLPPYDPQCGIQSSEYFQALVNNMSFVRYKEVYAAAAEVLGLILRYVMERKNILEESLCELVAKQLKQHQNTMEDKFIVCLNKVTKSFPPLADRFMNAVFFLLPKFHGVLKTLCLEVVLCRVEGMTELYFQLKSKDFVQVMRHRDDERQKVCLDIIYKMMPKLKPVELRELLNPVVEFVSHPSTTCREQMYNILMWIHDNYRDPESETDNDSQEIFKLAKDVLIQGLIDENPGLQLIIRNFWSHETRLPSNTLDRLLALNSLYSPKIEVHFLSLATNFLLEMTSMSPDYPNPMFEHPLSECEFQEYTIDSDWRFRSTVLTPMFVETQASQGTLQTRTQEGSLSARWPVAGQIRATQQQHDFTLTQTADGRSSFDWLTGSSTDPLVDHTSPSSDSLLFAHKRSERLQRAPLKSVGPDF

binding result: binds
Binder: SGRGK(Ac)TGGKARAKAKSR-{PEG-biotin} (reading uncertain) [H2AX K5ac-containing peptide]
